Results reported in publication PMC10948360.
Blank lines part the entries; values can stand above or below the substance they belong to.

Experiments:
[1] = target: SNAP-tagged full-length kinesin heavy chain (Khc FL), Alexa Fluor 647-labeled (UniProt P17210); assay: single-molecule TIRF colocalisation and motility assay on microtubules; Khc RNP mixes assembled at 500 nM of each component, diluted to 6.25 nM in BRB12 with 2.5 mM MgATP; taxol-stabilized microtubules immobilized by biotin-streptavidin; Cy3-osk 3′ UTR present; details: other: single-molecule TIRF colocalisation and motility assay on microtubules
[2] = target: SNAP-tagged full-length kinesin heavy chain (Khc FL), Alexa Fluor 647-labeled (Drosophila) (UniProt P17210); assay: as above
[3] = target: Full-length kinesin heavy chain (Khc FL), unlabeled (Drosophila) (UniProt P17210); assay: mass photometry; coexpressed, copurified Khc–Tm1 complex at 20 nM in PBS
[4] = target: SNAP-tagged full-length kinesin heavy chain (Khc FL), Alexa Fluor 647-labeled (Drosophila) (UniProt P17210)

SNAP-tagged full-length kinesin heavy chain (Khc FL), Alexa Fluor 647-labeled (Drosophila), sequence (P17210 whole entry): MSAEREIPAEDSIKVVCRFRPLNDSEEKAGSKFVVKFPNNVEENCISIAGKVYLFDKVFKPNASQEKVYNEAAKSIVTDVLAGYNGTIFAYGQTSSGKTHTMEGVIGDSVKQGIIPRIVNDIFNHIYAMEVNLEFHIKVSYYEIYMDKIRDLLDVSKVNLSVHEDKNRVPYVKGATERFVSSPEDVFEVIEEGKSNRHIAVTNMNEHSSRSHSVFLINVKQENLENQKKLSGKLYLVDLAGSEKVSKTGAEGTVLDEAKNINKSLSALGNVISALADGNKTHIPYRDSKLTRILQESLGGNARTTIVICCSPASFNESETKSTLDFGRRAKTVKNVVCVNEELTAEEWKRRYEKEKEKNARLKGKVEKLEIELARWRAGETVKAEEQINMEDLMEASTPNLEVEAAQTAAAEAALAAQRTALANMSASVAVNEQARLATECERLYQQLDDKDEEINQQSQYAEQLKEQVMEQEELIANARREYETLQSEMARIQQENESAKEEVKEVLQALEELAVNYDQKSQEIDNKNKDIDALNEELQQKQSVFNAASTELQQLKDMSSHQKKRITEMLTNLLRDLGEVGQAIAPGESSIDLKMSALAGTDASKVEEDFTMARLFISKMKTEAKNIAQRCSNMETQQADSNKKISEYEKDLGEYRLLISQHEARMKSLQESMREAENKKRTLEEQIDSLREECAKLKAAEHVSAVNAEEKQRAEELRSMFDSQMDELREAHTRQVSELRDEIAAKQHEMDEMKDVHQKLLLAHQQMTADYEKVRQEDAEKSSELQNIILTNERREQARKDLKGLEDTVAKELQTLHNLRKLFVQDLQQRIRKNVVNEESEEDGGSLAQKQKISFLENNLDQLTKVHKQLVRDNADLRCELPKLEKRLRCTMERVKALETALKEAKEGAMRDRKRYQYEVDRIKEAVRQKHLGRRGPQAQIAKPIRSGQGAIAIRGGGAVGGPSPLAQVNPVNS
Full-length kinesin heavy chain (Khc FL), unlabeled (Drosophila), sequence (P17210 whole entry): as above
SNAP-tagged full-length kinesin heavy chain (Khc FL), Alexa Fluor 647-labeled, sequence (P17210 whole entry): as above

Substance: SNAP-tagged full-length Tm1-I/C (Tm1 FL), Alexa Fluor 488-labeled
percent of Khc molecules bound to Tm1, corrected for the labeling efficiency of Tm1 [1]: ~95% of Khc molecules were bound to Tm1

percent of Khc signals colocalized with Tm1 signals [2]: 71%
Substance: SNAP-Tm1 1-335, fluorescently labeled (domain or fragment)

stoichiometry N [3]: 2 Khc per Tm1
Substance: Full-length Tm1-I/C (Tm1 FL) coexpressed and copurified with Khc FL (natural protein)

percent of Khc signals colocalizing with Tm1 signals [2]: 44.6%
mean velocity of microtubule-associated Khc FL complexes in the TIRF motility assay in the presence of Tm1 FL (0.240 µm s^−1 without Tm1) [4]: 0.099 µm s^−1
Substance: SNAP-tagged full-length Tm1-I/C (Tm1 FL), Alexa Fluor 488-labeled (natural protein)
